Test results reported in PMC10215022.

Key:
[1] = molecular target: SARS-CoV-2 Omicron BA.5 spike protein, plate-bound (MSD V-PLEX) (SARS-CoV-2 Omicron BA.5)
[2] = molecular target: SARS-CoV-2 Wuhan (WT) spike protein RBD, His-tagged (SARS-CoV-2 Wuhan (WT)) (UniProt P0DTC2); assay: SPR

“REGEN-COV mAb cocktail (casirivimab and imdevimab at 1:1 molar ratio)” was tested, and the IC50 [1] was 5.2 nM.
Substance “decavalent IgM ACE2 decoy (from UniProt Q9BYF1;P01591) (Fc fusion)” has a Kd [2] of 0.097 nM, a koff [2] of 3.5e-05 s⁻¹ and a kon [2] of 380000 M⁻¹ s⁻¹.
